Test [1] deals with T1, mouse transferrin receptor (mouse, UniProt Q62351 1-763).
T1 construct: whole, on cells; Mouse fibroblasts were the source of the mouse TfR in the radio-receptor assay; also called mouse TfR; TfR
Kind of test: radio-receptor assay on mouse fibroblasts, 4 C, displacement of [125I]-8D3 by unlabeled cTfRMAb, non-linear regression. How it is done:
(§1) Mouse TfR radio-receptor assay. Mouse fibroblasts were plated in 24-well cluster dishes (100,000 cells/well) 24 hours before the radio-receptor assay (RRA) of TfRMAb binding to the mouse TfR. The medium was aspirated, the cells washed with phosphate buffered saline (PBS), and 500 μL was added to each well containing 0.15 μCi/mL of [¹²⁵I]-labeled rat 8D3 MAb, and 0.3 to 100 nM concentrations of either unlabeled rat 8D3 MAb or unlabeled cTfRMAb. Following incubation at 4 C for 120 min, the medium was aspirated, the plates washed with cold PBS containing 1% bovine serum albumin (BSA), and the monolayer was lysed with 0.2 mL/well of 1 N NaOH. An aliquot was removed for protein measurement using the bicinchoninic acid (BCA) assay, and the radioactivity in the lysate was determined with a Beckmann gamma counter. The % bound/mg protein was computed from the radioactivity in the cell lysate and the total radioactivity in the medium. The 8D3 self-inhibition binding data were fit by non-linear regression analysis yield either the KD of 8D3 self-inhibition in the binding assay, or the KI of cross-inhibition by the chimeric TfRMAb or the cTfRMAb fusion protein.
(In general: Displacement assays read how much labelled ligand stays bound in the presence of the test substance.)

For test [2], the target named is T1, mouse transferrin receptor. Kind of test: radio-receptor assay on mouse fibroblasts, self-inhibition of [125I]-8D3, non-linear regression. As to the method:
as §1
(§2) Mouse fibroblasts were used as the source of the mouse TfR, and the ¹²⁵I-labeled rat 8D3 TfRMAb was used as the binding ligand. […]

The target in test [3] is T1, mouse transferrin receptor. Kind of test: radio-receptor assay on mouse fibroblasts, 4 C, self-inhibition of [125I]-8D3 by unlabeled 8D3, non-linear regression. How it is done: as §1
For test [4], the target named is T1, mouse transferrin receptor. Kind of test: radio-receptor assay on mouse fibroblasts, displacement of [125I]-8D3 by unlabeled cTfRMAb-GDNF, non-linear regression. How it is done:
as §1, §2

Test [5] concerns the target T2, fusion protein of human Fc and the human GFRalpha1 extracellular domain (human, UniProt P56159 25-429, limits assumed).
T2 construct: extracellular domain; Captured on ELISA wells by a mouse anti-human Fc antibody; The order of the parts follows the printed name GFRα1:Fc; also called GFRα1:Fc fusion protein; GFRα1 ECD; not shown: human Fc
T2 sequence (looked up): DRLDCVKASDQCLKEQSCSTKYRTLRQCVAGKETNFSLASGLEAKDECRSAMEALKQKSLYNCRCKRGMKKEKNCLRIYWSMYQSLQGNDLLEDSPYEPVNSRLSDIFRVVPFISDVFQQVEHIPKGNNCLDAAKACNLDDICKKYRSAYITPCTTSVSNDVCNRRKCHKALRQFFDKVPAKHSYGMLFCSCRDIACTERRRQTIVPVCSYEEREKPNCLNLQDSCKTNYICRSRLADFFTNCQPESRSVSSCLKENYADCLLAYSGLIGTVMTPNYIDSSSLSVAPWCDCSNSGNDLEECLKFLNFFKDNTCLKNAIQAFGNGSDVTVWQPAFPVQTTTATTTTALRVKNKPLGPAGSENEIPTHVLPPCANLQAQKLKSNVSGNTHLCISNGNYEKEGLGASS
Kind of test: ELISA: GFRα1:Fc captured by mouse anti-human Fc, detection with goat anti-GDNF and rabbit anti-goat-AP; given as ED50. An excerpt: FIG. 10. (A) Outline of GFRα1 receptor binding assay. The GFRα1:Fc fusion protein is captured by a mouse anti-human (MAH) Fc antibody. The GDNF, or cTfRMAb-GDNF fusion protein, binds to the GFRα1, and this binding is detected with a goat anti-GDNF antibody and a rabbit anti-goat (RAG) antibody conjugated to alkaline phosphatase (AP). (B) Binding of either GDNF (top panel) or the cTfRMAb-GDNF fusion protein (bottom panel) to the GFRα1 extracellular domain (ECD) is saturable.
The cTfRMAb-GDNF fusion protein is a bi-functional molecule that binds 2 receptors (FIG. 8): (i) the brain capillary endothelial mouse TfR to cause RMT across the mouse BBB in vivo, and (ii) the GFRα1 on neurons, to cause therapeutic actions in brain behind the BBB. The bi-functionality of the cTfRMAb-GDNF fusion protein was tested with binding assays for both the human GFRα1 and the mouse TfR. A mouse anti-human Fc (MAH-Fc) is plated in ELISA wells and captures a fusion protein of human Fc and the human GFRα1 extracellular domain (ECD). The cTfRMAb-GDNF fusion protein, or mature human GDNF, is then added, and these molecules bind to the GFRα1 ECD in proportion to the affinity for this receptor. The binding of the GDNF or the cTfRMAb-GDNF fusion protein is then detected with a goat anti-GDNF antibody, and a rabbit anti-goat (RAG) IgG-alkaline phosphatase (AP) conjugate (FIG. 10A).
Background: ELISA stands for enzyme-linked immunosorbent assay.

Several values for one entry are separate records, joined by “and”; a condition that tells them apart may be missing. Equal values may be shown once.

This note sets out measurements from US20100077498A1 (published 2010).

T1 sequence (Q62351 whole entry): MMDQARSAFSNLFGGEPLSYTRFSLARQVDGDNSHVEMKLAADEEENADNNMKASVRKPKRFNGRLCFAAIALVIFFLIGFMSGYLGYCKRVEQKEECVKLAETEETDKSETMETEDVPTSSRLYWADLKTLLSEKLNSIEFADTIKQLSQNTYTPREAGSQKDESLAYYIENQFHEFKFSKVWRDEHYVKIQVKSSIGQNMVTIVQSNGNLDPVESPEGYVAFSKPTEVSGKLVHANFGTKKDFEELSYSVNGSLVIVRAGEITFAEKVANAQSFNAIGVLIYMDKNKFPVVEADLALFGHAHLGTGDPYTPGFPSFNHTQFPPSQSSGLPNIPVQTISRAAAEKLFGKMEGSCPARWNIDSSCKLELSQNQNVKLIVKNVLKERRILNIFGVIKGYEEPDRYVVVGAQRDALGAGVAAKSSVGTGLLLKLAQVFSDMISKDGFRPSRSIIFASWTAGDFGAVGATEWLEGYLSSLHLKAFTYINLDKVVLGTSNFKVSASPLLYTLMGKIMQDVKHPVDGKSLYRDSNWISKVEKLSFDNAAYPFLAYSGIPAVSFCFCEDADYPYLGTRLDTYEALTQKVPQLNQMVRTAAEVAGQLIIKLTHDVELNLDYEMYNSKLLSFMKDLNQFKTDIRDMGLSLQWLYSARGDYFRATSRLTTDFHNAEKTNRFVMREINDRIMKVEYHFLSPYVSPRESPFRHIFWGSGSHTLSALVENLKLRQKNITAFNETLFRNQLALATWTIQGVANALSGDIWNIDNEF

B1: chimeric monoclonal antibody against the mouse transferrin receptor (rat 8D3 variable regions, mouse IgG1/kappa constant regions) (antibody, V domains shown)
VH: EVQLVESGGGLVQPGNSLTLSCVASGFTFSNYGMHWIRQAPKKGLEWIAMIYYDSSKMNYADTVKGRFTISRDNSKNTLYLEMNSLRSEDTAMYYCAVPTSHYVVDVWGQGVSVTVSS
VL: DIQMTQSPASLSASLEEIVTITCQASQDIGNWLAWYQQKPGKSPQLLIYGATSLADGVPSRFSGSRSGTQFSLKISRVQVEDIGIYYCLQAYNTPWTFGGGTKLELKR
notes: also called chimeric TfRMAb; cTfRMAb
In test [1], B1 came in with a Ki of 2.6 nM.

B2: rat 8D3 monoclonal antibody against the mouse transferrin receptor, hybridoma generated (antibody, V domains shown)
VH: B1 VH
VL: DIQMTQSPASLSASLEEIVTITCQASQDIGNWLAWYQQKPGKSPQLLIYGATSLADGVPSRFSGSRSGTQFSLKISRVQVEDIGIYYCLQAYNTPWTFGGGTKLELK
modifications: In part of the assays the antibody carried 125I (radio-iodinated tyrosines); the letters do not show this.
notes: Rat hybridoma antibody purified on protein G; also called 8D3 MAb; 8D3 TfRMAb
B2: the Kd was 5 nM and 3.2 nM in test [2]; 2.3 nM in test [3].

B3: cTfRMAb-GDNF fusion protein (human mature GDNF fused to the carboxyl terminus of the heavy chain of the chimeric MAb against the mouse TfR) (other)
heavy: EVQLVESGGGLVQPGNSLTLSCVASGFTFSNYGMHWIRQAPKKGLEWIAMIYYDSSKMNYADTVKGRFTISRDNSKNTLYLEMNSLRSEDTAMYYCAVPTSHYVVDVWGQGVSVTVSSAKTTPPSVYPLAPGSAAQTNSMVTLGCLVKGYFPEPVTVTWNSGSLSSGVHTFPAVLQSDLYTLSSSVTVPSSTWPSETVTCNVAHPASSTKVDKKIVPRDCGCKPCICTVPEVSSVFIFPPKPKDVLTITLTPKVTCVVVDISKDDPEVQFSWFVDDVEVHTAQTQPREEQFNSTFRSVSELPIMHQDWLNGKEFKCRVNSAAFPAPIEKTISKTKGRPKAPQVYTIPPPKEQMAKDKVSLTCMITDFFPEDITVEWQWNGQPAENYKNTQPIMDTDGSYFVYSKLNVQKSNWEAGNTFTCSVLHEGLHNHHTEKSLSHSPGSSSSPDKQMAVLPRRERNRQAAAANPENSRGKGRRGQRGKNRGCVLTAIHLNVTDLGLGYETKEELIFRYCSGSCDAAETTYDKILKNLSRNRRLVSDKVGQACCRPIAFDDDLSFLDDNLVYHILRKHSAKRCGCI
light: DIQMTQSPASLSASLEEIVTITCQASQDIGNWLAWYQQKPGKSPQLLIYGATSLADGVPSRFSGSRSGTQFSLKISRVQVEDIGIYYCLQAYNTPWTFGGGTKLELKRADAAPTVSIFPPSSEQLTSGGASVVCFLNNFYPKDINVKWKIDGSERQNGVLNSWTDQDSKDSTYSMSSTLTLTKDEYERHNSYTCEATHKTSTSPIVKSFNRGEC
notes: Hetero-tetramer of 2 light chains and 2 fusion heavy chains; expressed in COS cells, purified on protein G; also called cTrFMAb-GDNF
In turn, B3 came in with an inhibitory constant (Ki) in test [4] of 3 nM. In test [5], this molecule showed a 50% effective concentration (EC50) of 2.55 nM.

B4: human mature 134 amino acid glial derived neurotrophic factor (ligand, UniProt P39905 78-211, looked up)
chain: SPDKQMAVLPRRERNRQAAAANPENSRGKGRRGQRGKNRGCVLTAIHLNVTDLGLGYETKEELIFRYCSGSCDAAETTYDKILKNLSRNRRLVSDKVGQACCRPIAFDDDLSFLDDNLVYHILRKHSAKRCGCI
notes: mature; also called GDNF; mature human GDNF
Regarding B4, the EC50 in test [5] stood at 1.03 nM.

By Ki is commonly meant a dissociation constant, usually derived from enzyme kinetics or from competition with a known ligand. As usually defined, the Kd is the free concentration of one partner at which half of the binding sites on the other are occupied at equilibrium, for simple one-to-one binding. As usually defined, the EC50 is the concentration giving half of the maximal effect.
